Experiment: yeast display, Sf9 membrane polyspecificity reagent, FACS + sequencing; frameworks hold sequencing errors
Procedure, shortened: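 After 36–48 hours of galactose induction, yeast (Saccharomyces cerevisiae BJ5465) displaying a synthetic nanobody library were stained at 4 °C for 1 hour with 10% biotinylated, detergent-solubilized Sf9 membrane reagent. Streptavidin microbeads enriched the stained cells before FACS sorting into low and high (top ~1%) gates on anti-HA and streptavidin fluorescence. Each clone's polyreactivity label reflects its gate of origin.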

Sequence	polyreactivity (PSR sort gate)
QVQLVESGGGLVQAGGSLRLSCAASGRIFAYKAMGWYRQEPGKERELVAAISWSGSSTYYADSVKGRFTISRDNAKNTVYLQMNSLKPEDTAVYYCAATPWYYYSTSYAYYFWGQGTQVTVSS	high polyreactivity
QVQHVESGGGLVQAGGILRLSSAASGSTFVKNGMGWSRQAPGKERELVAAISGRRGSTYYADSVKGRFTISRDNAKNTVYLQMNSLKPEDTAVYYCNKAYSVAYTYNYWGQGTQVTVSS	high polyreactivity
QVQLVESGGGLGQAGGSLRLICAASGSIFYSNAMGWYRQATGKERELVAAISWNGGRTYYADSVKGRFTISRDTAKNTVYLQMNSLKPEDTAVYFWAAKYRNRYDFWGQGTQVTVSS	low polyreactivity
QVQLVESGGGIVQAGGSLRLSCAASGSISSAYAMGWYRQAPGKERELVAVITSGGSTNYADSVKGRFTISRDNAKNTVYLQMNSLKQEDTAVYYCATPVASVTGYDYWGLGTQVTVSS	low polyreactivity
QVQLVESGGGLVQAGGSLRLSCAASGLTFNYYDMGWYRQAPGKERELVAAISRSGTNTSYADSVKGRFTISRDNAKNTVYLQMNSLKPEDTAVYYCNAAGVYLAAGPFTANFNYNYWGQGTQVTVSS	low polyreactivity
QLQLVESGGGLVQAGGSLRLSCAASGRIFDYYAIGWYRQAPGKERQLVATINFSDGSTYYADSVKGRFTISRDNAKNTVYLQMNSLKPEDTAVYYCAAAGWEPYDSLDMNYWGQGTQVTVSS	low polyreactivity
QVQLVESGGGLVQAGGSLRLSCAASGSTFGRYAMGWYGQAPGKERELVAAISASGASTYYADSVKGRFTISRDNAKNTVYLQMNSLKPEDTAVYYSNAPYYFAGKPWGSWRYGYWGQGTQVTVSS	low polyreactivity
QVQLVESGGGLVQAGGSLRLSCAASGRTFGPYAMGWYRQAPGKERELVAAITSSGGSTYYADSVKGRFTISRDNAKNTVYLQMNSLKPEDTAVYYCNKLYWRQSQDYDYWGQGTQVTVSS	low polyreactivity
HVQLVESGGGLVQAGGSLRLSCAASGFIIGYYAMGWYRQAPGKERELVASITWSTTSTYYADSVKGRFTISRDNAKNTVYLQMNSLKPEDTAVYYCAADLQSKLPSSIYIGDYWGQGTQVTVSS	low polyreactivity
QVQLVESGGGLVQAGGSLRLSCAASGIIFWRYAMGWYRQAPGKERELVASISWSGGSTSYADSVKGRFTISRDNAKNTVYLQMNSLKPEDTAVYYCAAVFYYRRRYYYWGQGTQVTVSS	high polyreactivity
QVQLVESGGGLVQAGRSLRLSCAASGSILSINGMGWYRQAPGKERELVATIDGSEGSTFYADSVKGRFTISRDNAKNTFYLQLNSVKPEDTAVYYCAAENFWQTKEYDYWGQGKQVTVSS	low polyreactivity
QVQLVESGGGLVQAGGSLRLSCAASGRTFTRNVMGWYRQAPGKERELVARISYSGGSTSYADSVKGRFTISRDNAKNTVYLQMNSLKPEDTAVYYCAKYSGKYVSGRYRYYSWGQGTQVTVSS	high polyreactivity
QVQLVDSGGGLVQAGGSLRLSCAASGSIFRYNAMGWYREAPGKERVLVAAISWNGARTYYADSVKGRFTISRDNAKNTVYLQMNSLKPEDTAVYYCNAGTFTRRRGLDYWGQGTQVTGSS	low polyreactivity
QVQLVESGGGLVLAGGSLRLSCAASGRTYYAYTMGWYRKAPRKERELVAAISGSGSTTYYADSVKGRFTISRDNAKNTVYLQMNSLKPEDTAVFYCAADFFAGTQRTFDYWGQGTQVTVSS	high polyreactivity
QVQLVESGGGLVQAGGSLRLSCAASGFTFTRYAMGWYRQAPGTERELVAAISRRGGSTYYADSVKGRFTISRDNAKNTVYLQMNSLKPEDTAVYYCAKDAGSRTVREFGYWGQGTQVTVSS	high polyreactivity
QVQLVESGGGLVQAGGSLRLSCAASGSILNNYAMGWYRQAPGKERELVAAISSSGGTNYADSVKGRFKISRDNAKNTVYLQMNSLKPEDTAVYYCAKESLYQYDYWGQGTQVTVSS	low polyreactivity

Sequence	polyreactivity (PSR sort gate)
QVQLVESGGGLVQAGGSLRLSCAASGIILYRNGMGWYRQAPGKERELVAASSWSTGSTYYADSVKGRFTISRDNAKNTVYLQMNSLKPEDTAVYYCATDYVGYSFGMYYWGQGTQVTVSS	low polyreactivity
QVQLVESGGGLVQAGGSLRLSCAASGRTFYGNAMGWYSQAPGKERELVAAITDVDSTYYADSVKGRFTISRDNAKNSVYLQMNSLKPEDTAVYYCNADTSWGYPYGYWGQGTQVTVSS	low polyreactivity
QVQLVESGVGLVKAGGSLRLSCAASGFTIRPYAMGWYRQAPGKERELVAAITSGDSTNYADSVKGRFTISRDNAKNTVYLQMNSLKPEDTAVYYCAVDGGEFTSYGYWGQGTQVTVSS	low polyreactivity
QVQLVESGGGLVHAGGSLRLSCAASGRTFAPYTMGWYRPAPGKERELVASISTGGSTYYADSVKGRFTISRYNAKNTVYLQMNSLKPEDTAVYYCAATGWAYGYGYGYWGQGTQVTVSS	low polyreactivity
QVQLVESGGGLVQAGGSLRLSCAASGRIFHTYAMGWYIQAPGKERELVAAISRSGGSTYYADSVKGRFTISRDNAKNTVYLQMNSLKPEDTAVYYCAADIRGPYGNRYKFYYWGQGTQVTVSS	high polyreactivity
QVQLVESGGGLVQAGGSLRLSCAASGSIFYAYAMGWYRQAPGKERELVAAISASGGSTYYADSVKGRFTISRDNAKNTVYLQMNSLKPEDTAVYYCAALTYSTYQTAYRRYPKNKYWGQGTQVTVSS	high polyreactivity
QVQLVESGGGLVQAGGSLRLSCAASGRTLTGYAMGWYRQAPGKERELVAAITWRDSTYYADSVKGRFTISRDNAKNSVYLQMNSLKPEDTAVYYCNADNATYFVYEFNYWGQGTQVTVSS	low polyreactivity
QVQLVESGGGLVQAGGSLRLSCAAYGYIFIRNAMGCYRQAPGKERELVAAISWTGGNTYYADSVKGRFTISRDNAKNTVYLQMNSLIPEDTAVYYCAAQRSVFKSFRTTYVSYDYWGQGTQVTVSS	high polyreactivity
QVQLVESGGGLVQAGGSLRLSCAASGRTFYRYAMGWYRQAPWKERELVAAITKRGSGTYYADSVKGRFTISRDNAKNTVYLQMNSLKPEDTAVYYCATDGYIRPSRPAPTQPTFNYWGQGSQVTVSS	high polyreactivity
QVQLVESGGGLVQAGGSLRLSCAASGFIFGYYTMGWYRQAPGKEREVVAAISSSGGRTYYADSVKGRFTISRDNAKNTVYLQMNSLKPEDTAVYYCAKQNRGSEPAYDYWGQGTQVTVSS	low polyreactivity
QVQLVESGGGLVQAGGSLRLSCAASGRTFRFYAMGWYRPAPGKERELVAGITRSGGGTYYADSVKGRFTISRDNAKNTVYLQMNSLKPEDTAVYYCAATHAYLGYGYWGQGTQVTVSS	high polyreactivity
QVQLEDSGGGLVQAGGSLRLSCAASGRTLYLYAMGWYRQAPGKERELVAAIDWRGTSTYYADSVKGRFTISRDNAKNTVYLEMNSLKPEDTAVYYCNARFRSYLRWYQRDYWGQGTKVTVSS	low polyreactivity
QVQLVESGGGLVQAGGSLRLSCAASGLIFVWYAMGWYRQAPGKEREVVAAITSRGGSTYYADSVKGRFTISRDNAKNTVYLQMNSLKPEDTAVYYCAKYVRYDLGDYWGQGTQVTVSS	low polyreactivity
QVQLVESGGGLVQAAGSLRLICAASGRIFDVYAMGWYRPAPGKERELVAAITWSGTSTYYADSVKGRFTISRDNAKNTVYLQMNSLKPEDTAVYYCAAEVAYTDTEYFWYYYWGQGTQVTVSS	high polyreactivity
QVQLVESGGGLVQAGGSLRLSCAASGFTFNAHAMGWYRQAPGKERELVAVITRSGGRTYYADSVKGRFTISRDNAKNTVYLQMNSLKPEDTAVYYCAKEGPSRVYQGTDSASDYWGQGTQVTVSS	high polyreactivity
